This experiment concerns the target PB2-C (amino acids 247 to 736) from influenza A/Vietnam/1203/2004 (H5N1) virus (influenza A/Vietnam/1203/2004 (H5N1)). In words: SEC + other: SAXS.

As for “Rab11a_(1-173) (truncated Rab11a, GST tag removed) (from UniProt P62491 1-173) (domain or fragment)”, the stoichiometry N – broadly, the number of molecules, sites or subunits per partner or assembly – is 1.

(Values after article PMC8906434.)
